Measurements as given in patent US20100247515A1.

Experiments:
DOM1h-131-202 [1] = test: monomer/dimer self-association, AUC sedimentation equilibrium
DOM1h-131-202 [2] = test: monomer/dimer self-association, AUC sedimentation velocity
DOM1h-131-206 = test: monomer/dimer self-association, AUC sedimentation equilibrium

| Binder | Kd (DOM1h-131-202 [1]) | Kd (DOM1h-131-202 [2]) | Kd (DOM1h-131-206) |
| --- | --- | --- | --- |
| DOM1h-131-202 (protein) VH: EVQLLESGGGLVQPGGSLRLSCAASGFTFAHETMVWVRQAPGKGLEWVSHIPPDGQDPFYADSVKGRFTISRDNSKNTLYLQMNSLRAEDTAVYYCALLPKRGPWFDYWGQGTLVTVSS | 1300 nM | 1000 nM |  |
| DOM1h-131-206 (protein) VH: EVQLLESGGGLVQPGGSLRLSCAASGFTFAHETMVWVRQAPGKGLEWVSHIPPDGQDPFYADSVKGRFTISRDNSKNTLYLQMNSLRAEDTAVYHCALLPKRGPWFDYWGQGTLVTVSS |  |  | 360000 nM |
